Experimental data: article PMC9666628 (Nature Communications, 2022)

Legend:
Details in all cases: both partners purified
Cbx7.V1 = biological target: T1, Cbx7.V1 (human, UniProt O95931 7-66, E8D (back-mutant printed as D8E) | Q9D (back-mutant printed as D9Q) | V10I …); test: fluorescence polarisation; 0.5 nM FITC-labeled peptide, chromodomain serially diluted (wild type 200-0.2 µM; Cbx7.V1 50 µM-50 nM); 25 mM HEPES pH 7.5, 150 mM NaCl, 1 mM DTT, 0.01% TritonX-100; 30 min at 25 °C; one-site total binding model
T1 construct: also called Cbx7.5; source: E. coli BL21(DE3), purified (Ni-NTA); tags removed with TEV protease
T1 sequence: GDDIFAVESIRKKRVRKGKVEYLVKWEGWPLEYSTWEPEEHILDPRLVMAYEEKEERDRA

Cbx7 Q9D = biological target: T2, Cbx7 Q9D (human, UniProt O95931 7-66, Q9D); test: as above
T2 construct: chromodomain of human Cbx7 (UniProt O95931) with Q9D; source: E. coli BL21(DE3), purified (Ni-NTA); tags removed with TEV protease
T2 sequence: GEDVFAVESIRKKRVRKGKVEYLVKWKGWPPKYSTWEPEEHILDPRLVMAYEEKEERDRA

Cbx7 K33E = biological target: T3, Cbx7 K33E (human, UniProt O95931 7-66, K33E); test: as above
T3 construct: chromodomain of human Cbx7 (UniProt O95931) with K33E; source: E. coli BL21(DE3), purified (Ni-NTA); tags removed with TEV protease
T3 sequence: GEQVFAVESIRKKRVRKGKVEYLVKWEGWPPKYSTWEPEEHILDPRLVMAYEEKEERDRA

[1] = biological target: T4, Cbx7.V1 (tags removed, used for FP and ITC) (human, UniProt O95931 7-66, E8D (printed as the back-mutation D8E) | Q9D | V10I (printed as the …)); test: ITC; peptides (1.2-2 mM, syringe) titrated into Cbx7.V1 (70-112 µM, cell); 25 °C; PBS pH 7.4, 1 mM TCEP; one-site binding model
T4 construct: chromodomain of human Cbx7 (Cbx7-chromo), UniProt O95931; source: E. coli BL21(DE3), purified (Ni-NTA; tags removed with TEV protease)
T4 sequence: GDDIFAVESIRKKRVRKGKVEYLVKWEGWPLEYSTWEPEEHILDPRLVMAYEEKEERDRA

[2] = biological target: T5, Cbx7.V1 (His6- and Flag-tagged construct, used for BLI) (human, UniProt O95931 7-66, E8D (printed as the back-mutation D8E) | Q9D | V10I (printed as the …)); test: BLI; biotinylated peptides immobilised on streptavidin biosensor tips (Octet HTX); chromodomains in solution at 5 or 1 µM; 25 °C; 25 mM HEPES pH 7.0, 150 mM NaCl, 1 mg/ml BSA, 0.01% Tween-20; steady-state fit, Langmuir model
T5 construct: chromodomain of human Cbx7 (Cbx7-chromo), UniProt O95931; removal of the tags is told only for FP and ITC; source: E. coli BL21(DE3), purified (Ni-NTA)
T5 sequence: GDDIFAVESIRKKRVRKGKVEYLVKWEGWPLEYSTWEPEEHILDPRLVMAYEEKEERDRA

Cbx7.V1 D8E back-mutant = biological target: T6, Cbx7.V1 D8E back-mutant (human, UniProt O95931 7-66, Q9D | V10I (printed as the back-mutation I10V) | K33E | P37L (printed as the …)); test: as above
T6 construct: chromodomain of human Cbx7, UniProt O95931; Cbx7.V1 with residue 8 back to the wild type; source: E. coli BL21(DE3), purified (Ni-NTA)
T6 sequence: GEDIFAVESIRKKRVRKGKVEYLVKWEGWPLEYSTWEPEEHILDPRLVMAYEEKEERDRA

Cbx7.V1 D9Q back-mutant = biological target: T7, Cbx7.V1 D9Q back-mutant (human, UniProt O95931 7-66, E8D (printed as the back-mutation D8E) | V10I (printed as the back-mutation …)); test: as above
T7 construct: chromodomain of human Cbx7, UniProt O95931; Cbx7.V1 with residue 9 back to the wild type; source: E. coli BL21(DE3), purified (Ni-NTA)
T7 sequence: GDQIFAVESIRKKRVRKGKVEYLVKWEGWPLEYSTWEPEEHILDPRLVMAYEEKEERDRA

Cbx7.V1 I10V back-mutant = biological target: T8, Cbx7.V1 I10V back-mutant (human, UniProt O95931 7-66, E8D (printed as the back-mutation D8E) | Q9D | K33E | P37L (printed as the …)); test: as above
T8 construct: chromodomain of human Cbx7, UniProt O95931; Cbx7.V1 with residue 10 back to the wild type; source: E. coli BL21(DE3), purified (Ni-NTA)
T8 sequence: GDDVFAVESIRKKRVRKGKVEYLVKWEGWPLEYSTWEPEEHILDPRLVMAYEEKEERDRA

Cbx7.V1 E33K back-mutant = biological target: T9, Cbx7.V1 E33K back-mutant (human, UniProt O95931 7-66, E8D (printed as the back-mutation D8E) | Q9D | V10I (printed as the …)); test: as above
T9 construct: chromodomain of human Cbx7, UniProt O95931; Cbx7.V1 with residue 33 back to the wild type; source: E. coli BL21(DE3), purified (Ni-NTA)
T9 sequence: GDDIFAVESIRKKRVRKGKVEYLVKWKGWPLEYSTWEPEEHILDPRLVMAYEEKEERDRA

Cbx7.V1 L37P back-mutant = biological target: T10, Cbx7.V1 L37P back-mutant (human, UniProt O95931 7-66, E8D (printed as the back-mutation D8E) | Q9D | V10I (printed as the …)); test: as above
T10 construct: chromodomain of human Cbx7, UniProt O95931; Cbx7.V1 with residue 37 back to the wild type; source: E. coli BL21(DE3), purified (Ni-NTA)
T10 sequence: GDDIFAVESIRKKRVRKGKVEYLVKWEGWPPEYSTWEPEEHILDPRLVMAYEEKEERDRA

Cbx7.V1 E38K back-mutant = biological target: T11, Cbx7.V1 E38K back-mutant (human, UniProt O95931 7-66, E8D (printed as the back-mutation D8E) | Q9D | V10I (printed as the …)); test: as above
T11 construct: chromodomain of human Cbx7, UniProt O95931; Cbx7.V1 with residue 38 back to the wild type; source: E. coli BL21(DE3), purified (Ni-NTA)
T11 sequence: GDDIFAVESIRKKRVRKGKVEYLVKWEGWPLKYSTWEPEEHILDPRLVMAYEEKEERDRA

[3] = biological target: T4, Cbx7.V1 (tags removed, used for FP and …); test: fluorescence polarisation; 0.5 nM FITC-labelled peptide; chromodomains 200-0.2 µM (wild type) or 50 µM-50 nM (Cbx7.V1 and all Cbx.VDs); 30 min at 25 °C; 25 mM HEPES pH 7.5, 150 mM NaCl, 1 mM DTT, 0.01% TritonX-100; one-site total binding model
[4] = biological target: T12, wild-type Cbx7 chromodomain (tags removed) (human, UniProt O95931 7-66); test: as above
T12 construct: chromodomain of human Cbx7 (Cbx7-chromo), UniProt O95931; also called Cbx7.wt; source: E. coli BL21(DE3), purified (Ni-NTA; tags removed with TEV protease)
T12 sequence: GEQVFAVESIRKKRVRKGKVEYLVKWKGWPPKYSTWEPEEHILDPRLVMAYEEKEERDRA

[5] = biological target: T13, Cbx7 Q9D chromodomain (tags removed) (human, UniProt O95931 7-66, Q9D); test: as above
T13 construct: chromodomain of human Cbx7 (Cbx7-chromo), UniProt O95931; source: E. coli BL21(DE3), purified (Ni-NTA; tags removed with TEV protease)
T13 sequence: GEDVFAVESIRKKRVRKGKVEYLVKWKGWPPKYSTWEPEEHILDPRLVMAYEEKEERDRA

[6] = biological target: T14, Cbx7 K33E chromodomain (tags removed) (human, UniProt O95931 7-66, K33E); test: as above
T14 construct: chromodomain of human Cbx7 (Cbx7-chromo), UniProt O95931; source: E. coli BL21(DE3), purified (Ni-NTA; tags removed with TEV protease)
T14 sequence: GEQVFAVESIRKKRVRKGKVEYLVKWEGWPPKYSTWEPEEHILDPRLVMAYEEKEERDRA

[7] = biological target: T15, Cbx7.VD chromodomain, Q9D/K33E (tags removed) (human, UniProt O95931 7-66, Q9D | K33E); test: as above
T15 construct: chromodomain of human Cbx7 (Cbx7-chromo), UniProt O95931; source: E. coli BL21(DE3), purified (Ni-NTA; tags removed with TEV protease)
T15 sequence: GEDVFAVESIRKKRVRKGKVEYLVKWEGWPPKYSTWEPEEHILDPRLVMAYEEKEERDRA

[8] = biological target: T16, wild-type Cbx2 chromodomain (tags removed) (human, UniProt Q14781 9-62); test: as above
T16 construct: chromodomain of human Cbx2; also called Cbx2.wt; source: E. coli BL21(DE3), purified (Ni-NTA; tags removed with TEV protease)
T16 sequence: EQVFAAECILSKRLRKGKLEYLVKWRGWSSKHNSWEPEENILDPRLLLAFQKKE

[9] = biological target: T17, wild-type Cbx8 chromodomain (tags removed) (human, UniProt Q9HC52 8-61); test: as above
T17 construct: chromodomain of human Cbx8; also called Cbx8.wt; source: E. coli BL21(DE3), purified (Ni-NTA; tags removed with TEV protease)
T17 sequence: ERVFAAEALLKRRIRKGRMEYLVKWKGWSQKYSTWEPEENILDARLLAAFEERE

B1: FITC-labeled H3K9me3 peptide (peptide)
peptide: ARTKQTARKSTGGKAPR
modifications: trimethyl-lysine at K9 (Kme3); fluorescein isothiocyanate (FITC) on the N-terminus
notes: histone H3 N-terminal tail, residues 1-17; source: synthetic peptide (GenScript)
Kd (Cbx7.V1): 7.2 µM
Kd (Cbx7 Q9D): 12.3 µM
Kd (Cbx7 K33E): 18 µM

B2: FITC-labeled H3K27me3 peptide (peptide)
peptide: KQLATKAARKSAPATGGVK
modifications: trimethyl-lysine at K27 (Kme3); fluorescein isothiocyanate (FITC) on the N-terminus
notes: histone H3 tail, residues 18-36; source: synthetic peptide (GenScript)
Kd (Cbx7.V1): 4.2 µM
Kd (Cbx7 Q9D): 97 µM
Kd (Cbx7 K33E): 17.5 µM

B3: H3K27me3 peptide, N-terminal biotin (peptide)
chain: KQLATKAARKSAPATGGVK
modifications: trimethyl-lysine at K27; biotin followed by an aminohexanoic acid linker at the N-terminus
Kd [1]: 7.8 µM
stoichiometry N [1]: ~1
Kd [2]: 2 µM
Kd (Cbx7.V1 D8E back-mutant): 2 µM
Kd (Cbx7.V1 D9Q back-mutant): 2 µM
Kd (Cbx7.V1 I10V back-mutant): 2 µM
Kd (Cbx7.V1 E33K back-mutant): > 20 µM
Kd (Cbx7.V1 L37P back-mutant): 2.5 µM
Kd (Cbx7.V1 E38K back-mutant): 1.5 µM

B4: H3K9me3 peptide, N-terminal biotin (peptide)
chain: ARTKQTARKSTGGKAPR
modifications: trimethyl-lysine at K9; biotin followed by an aminohexanoic acid linker at the N-terminus
Kd [1]: 7 µM
stoichiometry N [1]: ~1
Kd [2]: 4.5 µM
Kd (Cbx7.V1 D8E back-mutant): 5 µM
Kd (Cbx7.V1 D9Q back-mutant): > 20 µM
Kd (Cbx7.V1 I10V back-mutant): 3.5 µM
Kd (Cbx7.V1 E33K back-mutant): 10 µM
Kd (Cbx7.V1 L37P back-mutant): 3 µM
Kd (Cbx7.V1 E38K back-mutant): 2 µM

KQLATKAARKSAPATGGVK (trimethyl-lysine at K27; fluorescein isothiocyanate (FITC) at the N-terminus) [H3K27me3 peptide, N-terminal FITC]
Kd [3]: 4 µM
Kd [4]: 110 µM
Kd [5]: 100 µM
Kd [6]: 20 µM
Kd [7]: 5 µM
Kd [8]: 100 µM
Kd [9]: > 200 µM
